Assay results from PMC1635258.
Like-named read-outs stand apart in the source and are kept apart here.

What was measured:
[1] = molecular target: T1, hRPA (replication protein A heterotrimer p70/p32/p14) (human, UniProt P27694;P15927;P35244 1-616;1-270;1-121); test: EMSA
[2] = molecular target: T1, hRPA (replication protein A …); test: EMSA; remark: listed apart in the source

T1 sequence (P27694 whole entry, chain 1 of 3): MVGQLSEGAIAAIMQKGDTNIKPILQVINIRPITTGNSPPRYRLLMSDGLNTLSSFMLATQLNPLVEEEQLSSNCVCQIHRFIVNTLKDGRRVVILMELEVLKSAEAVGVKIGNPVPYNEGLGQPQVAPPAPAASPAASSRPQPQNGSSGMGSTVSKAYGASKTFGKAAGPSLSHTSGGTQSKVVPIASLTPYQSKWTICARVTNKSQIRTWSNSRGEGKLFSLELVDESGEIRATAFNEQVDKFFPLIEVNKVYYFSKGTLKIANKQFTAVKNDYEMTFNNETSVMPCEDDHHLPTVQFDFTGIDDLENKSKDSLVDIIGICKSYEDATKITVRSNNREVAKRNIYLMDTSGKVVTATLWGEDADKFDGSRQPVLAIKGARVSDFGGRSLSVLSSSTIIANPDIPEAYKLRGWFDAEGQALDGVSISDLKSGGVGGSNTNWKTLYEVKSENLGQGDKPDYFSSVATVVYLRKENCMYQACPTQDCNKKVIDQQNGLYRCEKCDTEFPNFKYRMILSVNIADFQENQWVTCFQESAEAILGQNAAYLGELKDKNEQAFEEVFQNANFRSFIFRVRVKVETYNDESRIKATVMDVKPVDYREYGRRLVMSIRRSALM
T1 sequence (P15927 whole entry, chain 2 of 3): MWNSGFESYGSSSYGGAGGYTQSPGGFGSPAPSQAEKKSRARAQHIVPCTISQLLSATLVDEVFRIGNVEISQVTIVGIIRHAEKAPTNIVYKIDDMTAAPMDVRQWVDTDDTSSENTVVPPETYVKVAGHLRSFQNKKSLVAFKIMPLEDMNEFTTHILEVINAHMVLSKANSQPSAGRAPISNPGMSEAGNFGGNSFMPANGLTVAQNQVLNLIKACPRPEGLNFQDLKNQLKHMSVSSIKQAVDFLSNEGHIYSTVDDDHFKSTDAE
T1 sequence (P35244 whole entry, chain 3 of 3): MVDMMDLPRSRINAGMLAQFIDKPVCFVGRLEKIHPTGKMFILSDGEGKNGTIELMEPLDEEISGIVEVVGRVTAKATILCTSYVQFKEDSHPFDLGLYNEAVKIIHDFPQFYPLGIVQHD

## GGGTTAGGGTTAGGGTTAGGG (structured_DNA) [htelo]
[1]
  binding result: binds

## TTTTTTTTTTTTTTTTTTTTT (ssDNA) [T21]
[2]
  binding result: binds
